Experimental data taken from patent publication US20070259402.

B1: KEX2-SOL (soluble form of the yeast endoprotease KEX2, amino acids 1-675) (protein)
chain: LVSSQQIPLKDHTSRQYFAVESNETLSRLEEMHPNWKYEHDVRGLPNHYVFSKELLKLGKRSSLEELQGDNNDHILSVHDLFPRNDLFKRLPVPAPPMDSSLLPVKEAEDKLSINDPLFERQWHLVNPSFPGSDINVLDLWYNNITGAGVVAAIVDDGLDYENEDLKDNFCAEGSWDFNDNTNLPKPRLSDDYHGTRCAGEIAAKKGNNFCGVGVGYNAKISGIRILSGDITTEDEAASLIYGLDVNDIYSCSWGPADDGRHLQGPSDLVKKALVKGVTEGRDSKGAIYVFASGNGGTRGDNCNYDGYTNSIYSITIGAIDHKDLHPPYSEGCSAVMAVTYSSGSGEYIHSSDINGRCSNSHGGTSAAAPLAAGVYTLLLEANPNLTWRDVQYLSILSAVGLEKNADGDWRDSAMGKKYSHRYGFGKIDAHKLIEMSKTWENVNAQTWFYLPTLYVSQSTNSTEETLESVITISEKSLQDANFKRIEHVTVTVDIDTEIRGTTTVDLISPAGIISNLGVVRPRDVSSEGFKDWTFMSVAHWGENGVGDWKIKVKTTENGHRIDFHSWRLKLFGESIDSSKTETFVFGNDKEEVEPAATESTVSQYSASSTSISISATSTSSISIGVETSAIPQTTTASTDPDSDPNTPKKLSSPRQ
B2: PC7-SOL (soluble form of PC7, amino acids 1-663) (protein)
chain: LAGTGGPDGQGTGGPSWAVHLESLEGDGEEETLEQQADALAQAAGLVNAGRIGELQGHYLFVQPAGHRPALEVEAIRQQVEAVLAGHEAVRWHSEQRLLRRAKRSVHFNDPKYPQQWHLNNRRSPGRDINVTGVWERNVTGRGVTVVVVDDGVEHTIQDIAPNYSPEGSYDLNSNDPDPMPHPDVENGNHHGTRCAGEIAAVPNNSFCAVGVAYGSRIAGIRVLDGPLTDSMEAVAFNKHYQINDIYSCSWGPDDDGKTVDGPHQLGKAALQHGVIAGRQGFGSIFVVASGNGGQHNDNCNYDGYANSIYTVTIGAVDEEGRMPFYAEECASMLAVTFSGGDKMLRSIVTTDWDLQKGTGCTEGHTGTSAAAPLAAGMIALMLQVRPCLTWRDVQHIIVFTATRYEDRRAEWVTNEAGFSHSHQHGFGLLNAWRLVNAAKIWTSVPYLASYVSPVLKENKAIPQSPRSLEVLWNVSRMDLEMSGLKTLEHVAVTVSITHPRRGSLELKLFCPSGMMSLIGAPRSMDSDPNGFNDWTFSTVRCWGERARGTYRLVIRDVGDESFQVGILRQWQLTLYGSVWSAVDIRDRQRLLESAMSGKYLHDDFALPCPPGLKIPEEDGYTITPN
B3: human PC5 (PC5A), expressed from pSYN-PC5-003 (protein)
chain: RVYTNHWAVKIAGGFPEANRIASKYGFINIGQIGALKDYYHFYHSRTIKRSVISSRGTHSFISMEPKVEWIQQQVVKKRTKRDYDFSRAQSTYFNDPKWPSMWYMHCSDNTHPCQSDMNIEGAWKRGYTGKNIVVTILDDGIERTHPDLMQNYDALASCDVNGNDLDPMPRYDASNENKHGTRCAGEVAAAANNSHCTVGIAFNAKIGGVRMLDGDVTDMVEAKSVSFNPQHVHIYSASWGPDDDGKTVDGPAPLTRQAFENGVRMGRRGLGSVFVWASGNGGRSKDHCSCDGYTNSIYTISISSTAESGKKPWYLEECSSTLATTYSSGESYDKKIITTDLRQRCTDNHTGTSASAPMAAGIIALALEANPFLTWRDVQHVIVRTSRAGHLNANDWKTNAAGFKVSHLYGFGLMDAEAMVMEAEKWTTVPRQHVCVESTDRQIKTIRPNSAVRSIYKASGCSDNPNRHVNYLEHVVVRITITHPRRGDLAIYLTSPSGTRSQLLANRLFDHSMEGFKNWEFMTIHCWGERAAGDWVLEVYDTPSQLRNFKTPGKLKEWSLVLYGTSVQPYSPTNEFPKVERFRYSRVEDPTDDYGTEDYAGPCDPECSEVGCDGPGPDHCNDCLHYYYKLKNNTRICVSSCPPGHYHADKKRCRKCAPNCESCFGSHGDQCMSCKYGYFLNEETNSCVTHCPDGSYQDTKKNLCRKCSENCKTCTEFHNCTECRDGLSLQGSRCSVSCEDGRYFNGQDCQPCHRFCATCAGAGADGCINCTEGYFMEDGRCVQSCSISYYFDHSSENGYKSCKKCDISCLTCNGPGFKNCTSCPSGYLLDLGMCQMGAICKDATEESWAEGGFCMLVKKNNLCQRKVLQQLCCKTCTFQG

How the values were obtained:
[1] = molecular target: proFIX-Fc (FIX-Fc retaining the FIX propeptide; dimer or monomer form not given)
[2] = molecular target: N297A version of FIX-Fc retaining the propeptide
[3] = molecular target: proFIX-Fc monomer-dimer hybrid (FIX-Fc monomer retaining the propeptide)

Row | Protein | Propeptide Processing (Western blotting), CHO, transient transfection [1] | Propeptide Processing (Western blotting), HEK, transient transfection [1] | propeptide processing, Fc and propeptide Western blots, HEK 293 transient transfection (FIG. 8 lane 4, N297A Fc) [2] | Propeptide Processing (Western blotting), CHO, stable transfection [1] | peptide mapping (tryptic digest, LC/MS) for the propeptide indicator peptide (PIP), CHO stable line [1] | Propeptide Processing (Western blotting), HEK, stable transfection [2] | Propeptide Processing (Western blotting), HEK, stable transfection [1] | peptide mapping (tryptic digest, LC/MS) for the propeptide indicator peptide (PIP), HEK stable line [3]
1 | B1 | processes (cryptic cleavage) | does not fully process | FIX-Fc cotransfected with KEX2-SOL is not processed, as can be seen by the presence of propeptide in this material (lanes 3 and 4, bands present on both blots) | – | – | – | – | –
2 | B2 | processes | does not fully process | – | does not fully process | ProFIX-Fc was also found in CHO FIX-Fc protein that was cotransfected with PC7, although possibly at lower levels as indicated in the UV trace | does not fully process | – | –
3 | B3 | processes | processes | – | processes | – | – | processes | undetectable in purified FIX-Fc monomer cotransfected with PC5
